Experimental data reported in patent publication EP4019090A1.
Where a chain is given by its changes, count along the chain named.

What was measured:
[1] = biological target: Human IL-4R-Fc (human) (UniProt P24394); experiment: SPR
[2] = biological target: Biotinylated IL-4R (human) (UniProt P24394); experiment: competitive ELISA; IL-4 coated, biotinylated IL-4R preincubated with scFv, streptavidin-HRP
[3] = biological target: Biotinylated IL-4R (human) (UniProt P24394); experiment: competitive ELISA; IL-4 coated, biotinylated IL-4R preincubated with scFv; reference dupilumab
[4] = biological target: Human IL-4R-Fc (human) (UniProt P24394); experiment: SPR (Biacore T200); human IL-4R-Fc captured via anti-human IgG-Fc, scFv as analyte; 1:1 model

Biotinylated IL-4R (human), sequence (P24394 26-232 limits assumed): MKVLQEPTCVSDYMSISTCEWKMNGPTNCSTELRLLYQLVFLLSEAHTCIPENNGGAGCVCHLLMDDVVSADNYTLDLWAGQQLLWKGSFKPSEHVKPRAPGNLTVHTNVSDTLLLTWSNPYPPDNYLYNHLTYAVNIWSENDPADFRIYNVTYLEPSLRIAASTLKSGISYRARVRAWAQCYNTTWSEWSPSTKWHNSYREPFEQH
Human IL-4R-Fc (human), sequence (P24394 26-232 limits assumed): as above

B1: PRO1517 (scFv, from another filing)
scFv: DIQMTQSPSSLSASVGDRVTITCQASEDIESYLAWYQQKPGKAPKLLIYRASTLAYGVPSRFSGSGSGTDFTLTISSLQPEDFATYYCLGSSYSTGSNIFGTGTKVTVLGGGGGSGGGGSGGGGSGGGGSEVQLVESGGGLVQPGGSLRLSCAASGFSSSSAHYMCWVRQAPGKGLEWIGCIYAGSRGSTYYASWAKGRFTISRDNSKNTVYLQMNSLRAEDTAVYYCARAAFVNRGVSWIWPYYFSLWGQGTLVTVSS
In the case of B1, the Kd [1] is reported as < 0.5 nM, the IC50 [2] is reported as 0.54 ng/mL and the rel. IC50 (IC50, dupilumab/IC50 test sample) [3] is reported as 3.46.

B2: PRO1535 (scFv, from another filing)
scFv: B1 scFv with A43P, V132S, G180A, R204K, Y227F
In the case of B2, the Kd [1] is reported as < 0.5 nM, the IC50 [2] is reported as 1.92 ng/mL and the Kd [4] is reported as 0.0199 nM. For the same binder, the koff [4] was 5.42e-05 s⁻¹, the kon [4] was 2.72e+06 M⁻¹ s⁻¹ and the rel. IC50 (IC50, dupilumab/IC50 test sample) [3] was 0.98.
